Test results: a protein production outcome set (Wang et al. 2014)

Experiment: label from the status in PepcDB records
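Also: failed if final PepcDB status was selected cloned or expressed and not failed if soluble or beyond.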

| Sequence | protein production |
| --- | --- |
| MGHHHHHHSHMSRVPPTVTNAVSWRSEGIKYKKNEVFIDVIESVNLLVNANGSVLLSEIVGTIKLKVFLSGMPELRLGLNDRVLFELTGRSKNKSVELEDVKFHQCVRLSRFDNDRTISFIPPDGDFELMSYRLSTQVKPLIWIESVIEKFSHSRVEIMVKAKGQFKKQSVANGVEISVPVPSDADSPRFKTSVGSAKYVPERNVVIWSIKSFPGGKEYLMRAHFGLPSVEKEEVEGRPPIGVKFEIPYFTVSGIQVRYMKIIEKSGYQALPWVRYITQSGDYQLRTS | failed |
| MGHHHHHHSHMVANPPASKESIDALPEILVTEDHGAVGQEMCCPICCSEYVKGEVATELPCHHYFHKPCVSIWLQKSGTCPVCRCMFPPPL | failed |
| MGHHHHHHSHRGAGRVSRWPPPHWLEAWRVSPRPLSPLSPATFGRGFIAVAVIPGLWARGRGCSSDRLPRPAGPARRQFQAASLLTRGWGRAWPWKQILKELDECYERFSRETDGAQK | failed |
| MGHHHHHHSHRNLDSRTFITIGDRNFEVEADDLVTISELGRGAYGVVEKVRHAQSGTIMAVKRIRATVNSQEQKRLLMDLDINMRTVDCFYTVTFYGALFREGDVWICMELMDTSLDKFYRKVLDKNMTIPEDILGEIAVSIVRALEHLHSKLSVIHRDVKPSNVLINKEGHVKMCDFGISGYLVDSVAKTMDAGCKPYMAPERINPELNQKGYNVKSDVWSLGITMIEMAILRFPYESWGTPFQQLKQVVEEPSPQLPADRFSPEFVDFTAQCLRKNPAERMSYLELMEHPFFTLHKTKKTDIAAFVKEILGEDS | failed |
| MGHHHHHHSHVRSPQNQYPAELMRRFELYFQGPSSNKPRVIREVRADSVGKLVTVRGIVTRVSEVKPKMVVATYTCDQCGAETYQPIQSPTFMPLIMCPSQECQTNRSGGRLYLQTRGSRFIKFQEMKMQEHSDQVPVGNIPRSITVLVEGENTRIAQPGDHVSVTGIFLPILRTGFRQVVQGLLSETYLEAHRIVK | failed |
| MGHVSNSPFSVDVLVVGGGPAGSAAAIHAAKAGYSVLLIDAQPFPRDKTCGDGLTPRAVHQLEALGVDVTSRYRSFGLKLHGFGGSVTVPWPESHFGQVSSAMPRMKFDAMLWEMAAQHATTWTATASEVEIDSAIRSVTMSDGRVVKPRSVIVADGVRSTFGKLLGRTWHRGEVYGIAARSYCTTPRSTEPWMHSHLELRDDSTTLPGYGWIFPIGDGTANVGCGALSTDKRPAKINTKKLLRHYASQQTDWEFGTPQRVASALLPMGGAVSTIAGPNWMLIGDAAACVNPLNGEGIDYGLETAALAVAHLDNPLEWPHILRETYGEAFLLARTAARLLTYPQFLPLTGPIALRTPLMASAARLMGNLVTEEDKDIVARAWRAAGWGVTKIRGGSPLWDLEHHHHHH | failed |
| MGICVSFRREDSNSSPTVKIVTVNGDLREYNVPVIASQVLEAESAAAYSSSSSSRPSSYFICDSDSLYYDDFIPAIKSEEPLQADQIYFVLPISKRQSRLTASDMAALAVKASVAIQNSVKKESRRRKKVRISPVMMLTGSNDSVNGNGSETTVKKGRPFVSKTAPVKASSGINRSGSVRNLRRYTSKRAKLAVRSFRLKLSTIYEGSVV | failed |
| MGICVVIPAFNAALTIEAVVRETLEQGLPLVVVDDGSEDGTADCVRGLPVNLVSHGRNRGKGAALKTGFAWALEYGFSGVITLDSDGQHDPTAITLLAETAKNDGWDILVASRFAQFNQMAGLRRHWNRFGAWCMKKRTGFQIDDSQSGFRYYSARLLRMVSLGKDGYDLEMEILMKAWQAGCTIGSVPVPARVADGRATSHFRPVRDTWNICMTFLRYMLEHHHHHH | failed |
| MGIEMSLKDIINSNRPSESRQLACALTFCGGFIDAYTYIQRGHTLSAGQTGNVIFFSSALADHNIPGMINRASTFIAFSLGLLLVGLFHKYVKSHYWRVFCLFPILVICIVVGFLPKSVPNYYIVPAIAFGLAVQNASFSKIEGMGYNNVFTTGNLKKSVVAWSAFFFGEDKSKYTAAVNYMMLVISFGLGAIVSALLQKIWVLKTIWIAVIFLAIINCIYIIAIRKHKKLDLSGKNDA | failed |
| MGIHAKLETVQLPLLVSCLFPPLTMPAKDVQICPIAVDTTVFRSRTWDRLKFEIEYGLQRGTTANSYLISADKIALFDPPGESFTDNFVGTLIQRLDLNSLDYVILGHVNANRAHTLKLLLSLAPQATIICSNPAAQNLEKLLADAEVNNPIQVMKGNDHLDLGRGHELTFIPTPSPRYPGQLCTYDPRTEILFTDKLFGAHVCGDQVFDEGWTIYQEDRRYYFDCLLAPAAAQVSAALNKLEAYPAQTYAPSHGPLVRYGLRELTRNYQQWLSEQQAQALNVALIYASAYGNTSTLAQAIARGITKAGVAVTAINAETSNAEEIKEAIGKSAGFIFGSPTLGGHAPTPIQTALGITLANASKTQLCGVFGSFGWSGEAIDMLENKFRDAGFSFGFDTIRVKFKPTDQTLKMCEEAGTDFAQALKKAEKRRQPKSALPESESARTEQALGRLVGSLCVVTAQQGELSSAMLASWVSQATFSPPGLTVAVAKERAIESLLHKNSCFVLNILQEGNHLGLMKHFLKPFAPGGDRFADVATETAENGAPILTESLAYLECRVQQRLECGDHWVLYAVTDRGALLKDGVTAVHHRKSGDHY | failed |
| MGIRVKRRQHQHLLESLVHSTAKQQGDFTKTAELATELLCQNLAVSLVSIWIFSADQGTQSLVAQFGSMALQDTYRPSLLHTVPRYLNELKNYRHIDAGNTLIDPRLTELVDSYFIPRQILSSLDVGIRINGHLEGVLCIERAQVTHHWHDSEIHLACQMADQLALTLATKHAYLEHHHHHH | failed |
| MGISNIKQLYSKWKSLQPLKPEDLKRWNDKFKLEFNYNSNHLEGNTLTYGQTKLLLMFGETSGNASLKDYEEMKAHNVGLEMIKQEAQDKERPLTESFIRELNRTILVQDYWKNAKTPDGQDIRMQIKVGEYKSRPNSVLTATGEVFSYASPEETPAFMTSLVDWYNLEADKGILTPVELAALLHYRYIRIHPFEDGNGRIARLLVNFVLHRYGYPMIVIHSEDKSNYLNILHQCDVEAGLTPSDGANATLNDILPFVNYLSSCLIRSLTLAIKAAKGESIEEEGDFDKK | not failed |
| MGITDGVVVDLGGGTTGISILEKGKVIFVADEPTGGTHMTLVLAGSYGIDFETAEDIKTDKKKEKEVFVQITPVLQKMAAIVKKYIKDYKVKDVFLVGGACSFDGSESIFERELGLNIYKLEHHHHHH | failed |
| MGITITDELLWAILKDELSDAEANALVWQALGYVWDEAQSCWKTDLVAPEWRQDYPEPPDFIASRPATVKLTRSIPAPYKQLLKEELGFAGYSINELVPRKTRRATMTNWLLAYRRSQQD | not failed |
| MGITRKYIANLKDLPTRVQDENDCTSEPFTKPRLCCKMVNKIRNTLVSTETFLQKENITLDTYKRIIRDLVIHLDRVTTKVFVNSLPYNVMDDLGLQECEAFVLKWSEELRKLQSEYRNHLDQISNIERLRRSLNVCLKTREDQIQKVQKEFQWFINILKSLPKSSVCQDGFARIELLNLYRQWKKGQLISMLPIMDFIMKTLLKEKDSILKRKLQPKSA | failed |
| MGKALLIVNPSSGKEKGKTYQGKTEEVLKKRYDEVEVRLTEKAGDATEFASWASEQGFDAVIAMGGDGTLNETINGLAIHEKRPDFGFIPLGTVNDLARSVGIPLKPEKAIQALEKAKAIPMDIGRIGDQYFMNVLAIGMIAQAVDQVSVEQKTKFGSVAYFLEGLKAFNRNELLHFKLEYDEEVWEGEAALVVAGLTKSVGGMESWAPDAKIDDGYLHVVVLTKLGLLDAANMIPQLIRGNLKNSDGVVYIKTKKLTIDASGDDLSINVDGDPGPGVPAEIEVLGSHLNILAPKKSSQKRFGPFILKK | failed |
| MGKDFKSLVTRCIYVGKMNDNAKKLKIATEELKDLGNNVMKRVKLCEEQQQMKRLDKVQTWLRQADTVIKEAEEYFLMSSSSSSSGLISSSHKMEKKICKKLKEVQEIKSRGMFEVVAESTGGIGGGAGGGLTIKDSDEQTIGLEAVSGLVWRCLTMENTGIIGLYGVEGVGKTTVLTQVNNRLLQQKANGFDFVLWVFVSKNLNLQKIQDTIREKIGFLDRTWTSKSEEEKAAKIFEILSKRRFALFLDDVWEKVDLVKAGVPPPDAQNRSKIVFTTCSEEVCKEMSAQTKIKVEKLAWERAWDLFKKNVGEDTIKSHPDIAKVAQEVAARCDGLPLALVTIGRAMASKKTPQEWRDALYILSNSPPNFSGQIS | failed |
| MGKDLAECYLGLGSTFRTLGEYRKAEAVLANGVKQFPNHQALRVFYAMVLYNLGRYEQGVELLLKIIAETSDDETIQSYKQAILFYADKLLEHHHHHH | failed |
| MGKENSKVVVLDFWASPYAMRTKVALREKGVEFEVQEEDLWNKSELLLKSNPVHKKVPVLIHNNTPISESLIQVQYIDETWTDAASFLPSDPQSRATARFWADYADKTISFEGGRKIWGNKKGEEQEKGKKEFLESLKVLEAELGDKSYFGGETFGYVDITLVPFYSWFYALEKCGDFSVEAECPKIVAWGKRCVERNSVAATLPESEKVYQQVLKLRQIFGVE | failed |
| MGKGVAFFSGGKDGLYALYLAEEMGIEVPYLLVLKTSIGLSPHWENLDALKTLAKVMEREILTFDMRRGSKALAEFISSLDVDYLIAGDVYLEDHILWVKSLAEEANVKPLEPLWGRNTRKLAEEMLREGFNWAIIAVDKRKLGKEWLGYTFRSIEDLENFLRANPNVDPLGEVGEFHTVVLNSPLFALNFELKVESIEEDERYWWLRFELREVEKWNLNS | failed |
| MGKNIPSSLDLYPIIHNYLQEDDEILDIGCGSGKISLELASLGYSVTGIDINSEAIRLAETAARSPGLNQKTGGKAEFKVENASSLSFHDSSFDFAVMQAFLTSVPDPKERSRIIKEVFRVLKPGAYLYLVEFGQNWHLKLYRKRYLHDFPITKEEGSFLARDPETGETEFIAHHFTEKELVFLLTDCRFEIDYFRVKELETRTGNKILGFVIIAQKLLEHHHHHH | not failed |
| MGKRRFQKAKETSSVAEASSPTESQATRRRRGRPRKNLENPEDFKKEESEEDEDYEEYEDEEEEDEEAEVVINREKLKKKVRSSSGSMEKEQKMKHEELEEEEKPEMTVKVVVPPPSSRRSRRKSTPVKSW | failed |
| MGKYFFSETEIKNSWDLVLTAFWQRYPNPFSSHVLTEDVLFRKVTSENLLVSRRLFTKTNRLPRWAERIFPGRRSVYIIEDSVVDLSNRSLTTMTWNVNHAKLMRVVERCVFTGEQDRPVWTHITRQAWISSGVFGLSRPIQEFGLARFRSNQLKAMKGMEHAISNLQKASSSCHGESAEKPKNVNPAAKNAQKPQQYI | failed |
| MGLFAKITTASDPRTARIAGILLMLLAMLAFSFADAAGKTVVAIYSVGQLLVLRALAGLLVLSPLIWRQRKAFLQLERPGLQLARTLIAACEVAVFYLATAYLPLADVITFYLASSLFVSVGAALFLGETIDRPRGIAIVVGFVGVLIALQPSTQTMSWPALIAILASVLFAGLLLLTRFLRQTPDMVLASQQFAGTLLLGLVLAPSGWITPSATDLVWFAISGAVSAVGLLCVNRSLRLAPASVVVPYQYTMIIFAAAFGWLLFGDVPSRATVAGVAIIIAAGLYLGWRERSTSRPPVGG | failed |
| MGLGVACSSSQPPGSTTEANGPAVSSGPSLFLLHTTPADGLVLHDARTDESRTLAAGATAKPARAVSPSGRHLAFSYATADSSHLTLLDLTTQQAHRVHAAAGTSVAYSLAWHPNQERLAVGYYRPTDDGGRGPGGLQVVTPDGTTRDVGCSSVREVLHWLPDGSLAARTDDNLYVVDAGDCATQASLDIRRMHHLRYAPTGQQMAYIYRELEYDRDRGEYVPDSSFVLSGPDGTNPETLFGNERHARHHRWAPETNEVALDVRVEASGHRQVVVYDGSRPTFLVSPDQTTADQVHPRWSPSGNRIAFTLRSDASSQAAVRVKGQTRRLGRVDGAVWGWLDDRSVVVPGPDSVRVKALNGTTRYAHPTPQTLLHVWRRSAS | failed |
| MGLIYKVADQDWEFERIHKLNYKTFVEEIPQHEETKDRVRIDRFHDENTYLICLDEDKLVGMVALRGKRPFSLDYKISNLDFYLQEHGENVYEIRLLSVEREYRNGRALLGLIRFLHRYLLLNGYELALISATTRELPLYEQMGFKSFHTL | failed |
